Test results taken from patent US20240368260A1 (INSTITUT NATIONAL DE LA SANTE ET DE LA RECHERCHE MEDICALE, published 2024).

T1: recombinant human βIG-H3 (human, UniProt Q15582 24-683)
T1 construct: Bought recombinant protein; also called rhβIG-H3; rhbIG-H3
T1 sequence (looked up): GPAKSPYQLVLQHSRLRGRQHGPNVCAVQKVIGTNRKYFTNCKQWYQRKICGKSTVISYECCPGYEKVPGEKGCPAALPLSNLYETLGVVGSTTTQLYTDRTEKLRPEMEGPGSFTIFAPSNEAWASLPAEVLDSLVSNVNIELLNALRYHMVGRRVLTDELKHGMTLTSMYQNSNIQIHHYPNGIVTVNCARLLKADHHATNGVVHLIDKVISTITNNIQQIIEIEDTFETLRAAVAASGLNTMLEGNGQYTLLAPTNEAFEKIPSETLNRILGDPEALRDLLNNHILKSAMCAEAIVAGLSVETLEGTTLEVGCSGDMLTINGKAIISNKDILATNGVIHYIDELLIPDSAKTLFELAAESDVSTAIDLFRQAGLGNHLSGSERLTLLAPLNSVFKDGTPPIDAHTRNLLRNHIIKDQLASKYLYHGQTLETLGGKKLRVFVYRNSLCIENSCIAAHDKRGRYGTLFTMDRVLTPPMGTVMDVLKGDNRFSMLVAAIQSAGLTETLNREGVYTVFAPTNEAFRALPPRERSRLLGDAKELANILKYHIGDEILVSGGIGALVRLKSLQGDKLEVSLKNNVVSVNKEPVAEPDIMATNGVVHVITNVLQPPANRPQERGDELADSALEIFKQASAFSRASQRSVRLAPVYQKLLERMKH


How the values were obtained:
recombinant human βIG-H3 [1] = target: T1, recombinant human βIG-H3; assay: direct ELISA on coated rhβIG-H3, anti-human IgG-HRP
recombinant human βIG-H3 [2] = target: T1, recombinant human βIG-H3; assay: SPR Biacore T200, antibody captured via anti-human IgG, rhbIG-H3 as analyte, 1:1 fit, mean of n=3
Method: (§1) The assays were conducted using Biacore T200 instrument. It was performed in 2 steps: [0324] The first step, called suitability test, was aiming at determining the optimal conditions to run the assay: here, best sensor chip and running buffer conditions are assessed to defined best signal/noise ratio. [0325] The second step is the run itself that was performed in triplicate to ensure reproducibility and robustness of the results.
(§2) For the first step, 2 sensors and various buffer conditions were assessed using the parental and Chimeric 18B3 mAbs as a reference. It was then defined that sensor Chip C1 was the most appropriate, and buffer containing 300 mM NaCl and 0.25 mg/mL BSA was reducing the non-specific binding and increased the signal.
(§3) Rate constants (kₐ, kd) and equilibrium dissociation constants (KD) of rhbIG-H3 interaction with six antibodies determined by SPR. Experimental data were fitted to a 1:1 binding model. Listed are mean values ±SD of n=3 independent experiments.

recombinant human βIG-H3 [3] = target: T1, recombinant human βIG-H3; assay: SPR single cycle kinetics, mAb captured via anti-human IgG (Fc) on CM5, hβIG-H3 5-100 nM as analyte, 1:1 model; SCK1 Fc2
Method: (§4) Anti-Human IgG (Fc) antibody is chemically grafted on a CM5 sensorchip using amine coupling according to the Cytivia 22064888AF notice. Briefly, surface is first activated by injection of a NHS-EDC mixture. Then, several injections (3 on the 10 available on the kit) of Anti-Human IgG (25 μg/ml in immobilization buffer) adjusting the contact time are performed. Finally, the surfaces are deactivated with ethanolamine 1M pH 8.5.
(§5) A negative control Ab is immobilized on sensor flowcell 1 (Fc 1) and positive control (chimeric 18B3 mAB) on Fc 2. 18B3 variants Abs are immobilized on Fc3 and Fc4:
(§6) Injection of increasing concentrations (5; 10; 25; 50; 100 nM) of antigen (hβIG-H3) during 180 s is performed on each flowcell. Short dissociations are performed in RB between each antigen concentration. After injection of the highest antigen concentration (100 nM), a dissociation in RB is recorded during 3600 s. [0348] Three similar cycles with five injections of RB are carried out before the cycle of Antigen in order to perform double subtraction procedure (Blank run). [0349] Three similar cycles with five injection of RB and a dissociation time of 600 s are performed before the blank runs in order to stabilize the system (Startup run).

recombinant human βIG-H3 [4] = target: T1, recombinant human βIG-H3; assay: SPR single cycle kinetics, mAb captured via anti-human IgG (Fc) on CM5, hβIG-H3 5-100 nM as analyte, 1:1 model; SCK2 Fc2
Method: as §4, §5, §6

recombinant human βIG-H3 [5] = target: T1, recombinant human βIG-H3; assay: SPR Biacore T200, antibody captured via anti-mouse IgG, rhbIG-H3 as analyte, 1:1 fit, mean of n=3
Method: as §1, §2, §3

recombinant human βIG-H3 [6] = target: T1, recombinant human βIG-H3; assay: SPR single cycle kinetics, mAb captured via anti-human IgG (Fc) on CM5, hβIG-H3 5-100 nM as analyte, 1:1 model; SCK1 Fc3
Method: as §4, §5, §6

recombinant human βIG-H3 [7] = target: T1, recombinant human βIG-H3; assay: SPR single cycle kinetics, mAb captured via anti-human IgG (Fc) on CM5, hβIG-H3 5-100 nM as analyte, 1:1 model; SCK2 Fc3
Method: as §4, §5, §6

recombinant human βIG-H3 [8] = target: T1, recombinant human βIG-H3; assay: direct ELISA on coated rhβIG-H3

ELISA Titer (recombinant human βIG-H3 [1]) [µg/mL] | Kd (recombinant human βIG-H3 [2]) [nM] | koff (recombinant human βIG-H3 [2]) [s⁻¹] | kon (recombinant human βIG-H3 [2]) [M⁻¹ s⁻¹] | binding result (recombinant human βIG-H3 [8]) | Binder | further results
0.03 | 0.187 | 0.000247 | 1.32e+06 |  | Chimeric huIgG1 k 18B3 (antibody, V domains shown, also called ch18B3; 18B3 chim) VH: EVQLVESGGGLVKPGGSLKLSCAASGFTFSDYYMYWVRQTPEKRLEWVATISDGGIYTYYPDSVKGRFTISRDSAKNNLYLQMTSLKSDDTAMYYCVRGWDRYDSWFACWGQGTLVTVSA VL: DIVMSQSPSSLVVSAGEKVTMTCKSSQSLLYSSNQKNYLAWYRQKPGQSPKLLIYWASTRESGVPDRFTGSGSGTDFTLTISSVKAEDLAVYYCQQYYRYPYTFGGGTKLEIKR | Kd (recombinant human βIG-H3 [3]): 0.0627 nM; koff (recombinant human βIG-H3 [3]): 0.00013 s⁻¹; kon (recombinant human βIG-H3 [3]): 2.06e+06 M⁻¹ s⁻¹; Kd (recombinant human βIG-H3 [4]): 0.0854 nM; koff (recombinant human βIG-H3 [4]): 0.00016 s⁻¹; kon (recombinant human βIG-H3 [4]): 1.87e+06 M⁻¹ s⁻¹
 |  |  |  |  | Mouse monoclonal 18B3 (antibody, V domains shown, Mouse IgG1/k from hybridoma; also called m18B3; murine 18B3 mAb) VH: EVQLVESGGGLVKPGGSLKLSCAASGFTFSDYYMYWVRQTPEKRLEWVATISDGGIYTYYPDSVKGRFTISRDSAKNNLYLQMTSLKSDDTAMYYCVRGWDRYDSWFACWGQGTLVTVSA VL: DIVMSQSPSSLVVSAGEKVTMTCKSSQSLLYSSNQKNYLAWYRQKPGQSPKLLIYWASTRESGVPDRFTGSGSGTDFTLTISSVKAEDLAVYYCQQYYRYPYTFGGGTKLEIK | Kd (recombinant human βIG-H3 [5]): 0.411 nM; koff (recombinant human βIG-H3 [5]): 0.000234 s⁻¹; kon (recombinant human βIG-H3 [5]): 572000 M⁻¹ s⁻¹
0.047 | 0.535 | 0.000659 | 1.23e+06 |  | Humanized 18B3 B (H330-V1/L41-V1) (antibody, human IgG1, kappa, V domains shown, also called H-330/L-41; H330/L41) VH: QVQLVESGGGVVQPGGSLRLSCAASGFTFSDYYMYWVRQAPGKGLEWVATISDGGIYKYYADSVKGRFTISRDSSKNTLYLQMNSLRAEDTAVYYCVRGWDRYDSWFACWGQGTTVTVSS VL: not shown | 
0.04 | 0.476 | 0.000583 | 1.23e+06 |  | Humanized 18B3 E (H330-V1/L228-V1) (antibody, human IgG1, kappa, V domains shown, also called H330/L228) VH: QVQLVESGGGVVQPGGSLRLSCAASGFTFSDYYMYWVRQAPGKGLEWVATISDGGIYKYYADSVKGRFTISRDSSKNTLYLQMNSLRAEDTAVYYCVRGWDRYDSWFACWGQGTTVTVSS VL: DIVMTQSPLSLPVTPGEPASMSCRSSQSLLYSSNQKNYLAWYLQKPGQSPQLLIYWGSTRESGVPDRFSGSGSGTDFTLKISRVEAEDVGVYYCQQYYRYPYTFGQGTKLEIKR | 
0.0038 |  |  |  |  | 18B3 H330-V1.2/L41-V1 (antibody, human IgG1, kappa, V domains shown, also called H-330/L-41 V1.2; H330C102S/L-41) VH: QVQLVESGGGVVQPGGSLRLSCAASGFTFSDYYMYWVRQAPGKGLEWVATISDGGIYKYYADSVKGRFTISRDSSKNTLYLQMNSLRAEDTAVYYCVRGWDRYDSWFASWGQGTTVTVSS VL: not shown | Kd (recombinant human βIG-H3 [6]): 0.124 nM; koff (recombinant human βIG-H3 [6]): 0.000798 s⁻¹; kon (recombinant human βIG-H3 [6]): 6.46e+06 M⁻¹ s⁻¹; Kd (recombinant human βIG-H3 [7]): 0.169 nM; koff (recombinant human βIG-H3 [7]): 0.000659 s⁻¹; kon (recombinant human βIG-H3 [7]): 3.9e+06 M⁻¹ s⁻¹
0.041 | 0.482 | 0.000726 | 1.5e+06 |  | Humanized 18B3 A (H311-V1/L41-V1) (antibody, human IgG1, kappa, V domains shown, also called H311/L41) VH: QVQLVESGGGLVKPGGSLRLSCAASGFTFSDYYMYWIRQAPGKGLEWVATISDGGIYIYYADSVKGRFTISRDSAKNSLYLQMNSLRAEDTAVYYCVRGWDRYDSWFACWGQGTTVTVSS VL: not shown | 
0.046 | 0.49 | 0.000707 | 1.45e+06 |  | Humanized 18B3 D (H311-V1/L228-V1) (antibody, human IgG1, kappa, V domains shown, also called H311/L228) VH: QVQLVESGGGLVKPGGSLRLSCAASGFTFSDYYMYWIRQAPGKGLEWVATISDGGIYIYYADSVKGRFTISRDSAKNSLYLQMNSLRAEDTAVYYCVRGWDRYDSWFACWGQGTTVTVSS VL: DIVMTQSPLSLPVTPGEPASMSCRSSQSLLYSSNQKNYLAWYLQKPGQSPQLLIYWGSTRESGVPDRFSGSGSGTDFTLKISRVEAEDVGVYYCQQYYRYPYTFGQGTKLEIKR | 
 |  |  |  | binds | H-169/L-315 (antibody, human IgG1, kappa, V domains shown) VH: QVQLVQSGAEVKKPGSSVKVSCKASGFTFSDYYMYWVRQAPGQGLEWVGTISDGGIYAYYAQKVQGRFTITRDSSTSTLYLELSSLRSEDTAVYYCVRGWDRYDSWFACWGQGTTVTVSS VL: EIVMTQSPATLSVSPGERATMSCRASQSLLYSSNQKNYLAWYQQKPGQAPRLLIYWASTRETGIPARFSGSGSGTEFTLTISSLQSEDFAVYYCQQYYRYPYTFGQGTKLEIKR | 
 |  |  |  | binds | H-169/L-41 (antibody, human IgG1, kappa, V domains shown) VH: QVQLVQSGAEVKKPGSSVKVSCKASGFTFSDYYMYWVRQAPGQGLEWVGTISDGGIYAYYAQKVQGRFTITRDSSTSTLYLELSSLRSEDTAVYYCVRGWDRYDSWFACWGQGTTVTVSS VL: not shown | 
 |  |  |  | binds | H-311/L-315 (antibody, human IgG1, kappa, V domains shown) VH: QVQLVESGGGLVKPGGSLRLSCAASGFTFSDYYMYWIRQAPGKGLEWVATISDGGIYIYYADSVKGRFTISRDSAKNSLYLQMNSLRAEDTAVYYCVRGWDRYDSWFACWGQGTTVTVSS VL: EIVMTQSPATLSVSPGERATMSCRASQSLLYSSNQKNYLAWYQQKPGQAPRLLIYWASTRETGIPARFSGSGSGTEFTLTISSLQSEDFAVYYCQQYYRYPYTFGQGTKLEIKR | 
 |  |  |  | binds | H-169/L-228 (antibody, human IgG1, kappa, V domains shown) VH: QVQLVQSGAEVKKPGSSVKVSCKASGFTFSDYYMYWVRQAPGQGLEWVGTISDGGIYAYYAQKVQGRFTITRDSSTSTLYLELSSLRSEDTAVYYCVRGWDRYDSWFACWGQGTTVTVSS VL: DIVMTQSPLSLPVTPGEPASMSCRSSQSLLYSSNQKNYLAWYLQKPGQSPQLLIYWGSTRESGVPDRFSGSGSGTDFTLKISRVEAEDVGVYYCQQYYRYPYTFGQGTKLEIKR | 
 |  |  |  | binds | H-330/L-315 (antibody, human IgG1, kappa, V domains shown) VH: QVQLVESGGGVVQPGGSLRLSCAASGFTFSDYYMYWVRQAPGKGLEWVATISDGGIYKYYADSVKGRFTISRDSSKNTLYLQMNSLRAEDTAVYYCVRGWDRYDSWFACWGQGTTVTVSS VL: EIVMTQSPATLSVSPGERATMSCRASQSLLYSSNQKNYLAWYQQKPGQAPRLLIYWASTRETGIPARFSGSGSGTEFTLTISSLQSEDFAVYYCQQYYRYPYTFGQGTKLEIKR | 
